Measurements taken from patent publication US20250257099A1 (priority 2022, published 2025).

Assays:
[1] = target: MERS-CoV spike (S) protein (MERS-CoV) (UniProt K9N5Q8); assay: cell-based or functional assay
[2] = target: SARS-CoV-2 spike (S) glycoprotein (SARS-CoV-2) (UniProt P0DTC2); assay: cell-based or functional assay

EK1 lipopeptide (EK1C4), cholesterol-conjugated
IC50, plaque-neutralization test, MERS-CoV infection of Vero E6 cells [1]: 8 nM
IC50, plaque-neutralization test, SARS-CoV-2 infection of Vero E6 cells [2]: 80 nM
